Measured values published in article PMC4067180.

Key:
[1] = molecular target: tektin A (S. purpuratus (endogenous in sperm flagella)); experiment: co-sedimentation; Ribbons extracted with 0.5% Sarkosyl and urea (1-3 M; 1.75 M for the stoichiometry) in 10TEAD; the insoluble tektin filaments analysed by SDS-PAGE densitometry (Serva Blue) and immunoblotting
[2] = molecular target: tektin B (S. purpuratus (endogenous in sperm flagella)); experiment: as above

Row | stoichiometry N [1] | stoichiometry N [2] | Substance
1 | 1 |  | tektin B (natural protein)
2 | 1 | 1 | tektin C (natural protein)
